Assay results: article PMC5987543

Biological target: α-synuclein, P37840
Experiment: SPR; Biacore X100; monomeric α-syn immobilised on a streptavidin-coated chip; S100A9 injected at increasing concentrations in a single cycle; HBS-P+ (10 mM HEPES, 150 mM NaCl, 0.001% P20), pH 7.4, 25 °C; steady-state fit Rc = C*Rmax/(Kd + C); apparent; three repeats
Details: remark: other sources report otherwise

B1: S100A9, P06702 1-114 (natural protein)
chain: MTCKMSQLERNIETIINTFHQYSVKLGHPDTLNQGEFKELVRKDLQNFLKKENKNEKVIEHIMEDLDTNADKQLSFEEFIMLMARLTWASHEKMHEGDEGPGHHHKPGLGEGTP
Kd: 5 µM
